Data from patent US20240101668A1 (WUGEN, published 2024).
Changes are numbered by the printed parent chain.

T1: huCLL1-K244-Avi-Tev-His (human, UniProt Q5QGZ9 65-265)
T1 construct: extracellular domain
T1 sequence (looked up): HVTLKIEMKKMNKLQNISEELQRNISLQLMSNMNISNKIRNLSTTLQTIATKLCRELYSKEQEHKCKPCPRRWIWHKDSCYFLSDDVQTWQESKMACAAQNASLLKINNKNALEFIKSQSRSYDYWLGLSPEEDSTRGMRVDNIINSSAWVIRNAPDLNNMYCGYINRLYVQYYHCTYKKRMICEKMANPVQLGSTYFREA

T2: huCLL1-Q244-Avi-Tev-His (human, UniProt Q5QGZ9 65-265)
T2 construct: extracellular domain; also called CLL-1 K244Q
T2 sequence (looked up): T1 sequence (looked up) with K180Q

B1: Polypeptide No. 190 (scFv, V domains shown)
VH: EVQLLESGGGLVQPGGSLRLSCAASGFTFSSSWMHWVRQAPGKGLEWVSTINTNGDAAYYADSVKGRFTISRDNSKNTLYLQMNSLRAEDTAVYYCARDTVLDDYGDYDDYGMDVWGQGTTVTVSS
VL: EIVMTQSPATLSVSPGERATLSCRASQSVSSSYLAWYQQKPGQAPRLLIYGASTRAAGIPARFSGSGSGTEFTLTISSLQSEDFAVYYCQQYGSSPFTFGPGTKVDIKR
notes: scFv
B2: Polypeptide No. 185 (scFv, V domains shown)
VH: EVQLLESGGGLVQPGGSLRLSCAASGFTFSNSDMYWVRQAPGKGLEWVSAISGSDGTTYYADSVKGRFTISRDNSKNTLYLQMNSLRAEDTAVYYCARDDYGDQGFDLWGRGTLVTVSS
VL: DIQMTQSPSSLSASVGDRVTITCRASQDIRNDLGWYQQKPGKAPKLLIYDASNLQTGVPSRFSGSGSGTDFTLTISSLQPEDFATYYCQQSYNMPYTFGQGTKLEIKR
notes: scFv
B3: Polypeptide No. 181 (scFv, V domains shown)
VH: QVQLVQSGAEVKKPGASVKVSCKASGYTFTGYYMHWVRQAPGQGLEWMGVINPSGGSTSYAQKFQGRVTMTRDTSTSTVYMELSSLRSEDTAVYYCARGRTDDAFDIWGQGTLVTVSS
VL: DIQMTQSPSSLSASVGDRVTITCRASQTISSWLAWYQQKPGKAPKLLIYAASTLQSGVPSRFSGSGSGTDFTLTISSLQPEDFATYYCQQSYSIPLTFGGGTKLEIKR
notes: scFv
B4: Polypeptide No. 189 (scFv, V domains shown)
VH: EVQLLESGGGLVQPGGSLRLSCAASGLTAGSNYMSWVRQAPGKGLEWVSAISDDGHWTDYADSVKGRFTISRDNSKNTLYLQMNSLRAEDTAVYYCVKDDGEGSGIDWGQGTLVTVSS
VL: B3 VL with T28G, S31D, W32Y, A50G, T53S, I94T, L96W, G100P, L104V, E105D
notes: scFv
B5: Polypeptide No. 182 (scFv, V domains shown)
VH: QVQLVQSGAEVKKPGASVKVSCKASGYTFTDYYMHWVRQAPGQGLEWLGIINTGAGTTNYAPKFQGRVTMTRDTSTSTVYMELSSLRSEDTAVYYCARGLTSDHFDYWGQGTLVTVSS
VL: B3 VL with T28N, S30G, S31P, A50E, S52F, Y92D, S93N, L96I, G100Q, L104V
notes: scFv
B6: Polypeptide No. 194 (scFv, V domains shown)
VH: QVQLVQSGAEVKKPGASVKVSCKASGVTFSNSGINWVRQAPGQGLEWMGWMNPASGDTGYAQKFQGRVTMTRDTSTSTVYMELSSLRSEDTAVYYCARGEYGAEYFQHWGQGTLVTVSS
VL: B3 VL with T28S, A50D, T53S, Q55E, Y92H, I94L, L96P, G100Q, K103R
notes: scFv
B7: Polypeptide No. 183 (scFv, V domains shown)
VH: QVQLVQSGAEVKKPGSSVKVSCKASGGTFSSYAISWVRQAPGQGLEWMGGIIPKFGPPNYAPKFQGRVTITADESTSTAYMELSSLRSEDTAVYYCARNSYGDDFDYWGQGTLVTVSS
VL: B3 VL with T28S, T53S, S56R, I94T, G100Q, L104V
notes: scFv
B8: Polypeptide No. 197 (scFv, V domains shown)
VH: QVQLVQSGAEVKKPGASVKVSCKASGYTLTNNWMHWVRQAPGQGLEWMGWMNPNSGNTGYAQKFQGRVTMTRDTSTSTVYMELSSLRSEDTAVYYCATATADDAFDIWGQGTMVTVSS
VL: B3 VL with T28S, S31T, A50G, T53S, S93D, L96I, G100P, L104V, E105D
notes: scFv
B9: Polypeptide No. 199 (scFv, V domains shown)
VH: QVQLVQSGAEVKKPGASVKVSCKASGDTFTGYHIHWVRQAPGQGLEWMGWMNPDSGSTGYAQKFQGRVTMTRDTSTSTVYMELSSLRSEDTAVYYCTTDRLYGDYFDYWGQGTLVTVSS
VL: DIQMTQSPSSLSASVGDRVTITCRASQSVSSWLAWYQQKPGKAPKLLIYDASSLQSGVPSRFSGSGSGTDFTLTISSLQPEDFATYYCQQANSFPFTFGPGTKVDIKR
notes: scFv
B10: Polypeptide No. 178 (scFv, V domains shown)
VH: EVQLLESGGGLVQPGGSLRLSCAASGFTFSSSDMSWVRQAPGKGLEWVSSITGSGDGTYYADSVKGRFTISRDNSKNTLYLQMNSLRAEDTAVYYCIRDWEGIYQWGQGTLVTVSS
VL: DIQMTQSPSSLSASVGDRVTITCRVSQGISSYLNWYQQKPGKAPKLLIYDASNLETGVPSRFSGSGSGTDFTLTISSLQPEDFATYYCQQGYSTPWTFGQGTKLEIKR
notes: scFv
B11: Polypeptide No. 180 (scFv, V domains shown)
VH: QVQLVQSGAEVKKPGASVKVSCKASGYTFTSLDINWVRQAPGQGLEWMGSMNPRSGSTAYAQSFQGRVTMTRDTSTSTVYMELSSLRSEDTAVYYCAKSDYGDYLDYWGQGTLVTVSS
VL: B3 VL with T28S, S31P, A50D, T53N, I94T, G100Q
notes: scFv
B12: Polypeptide No. 187 (scFv, V domains shown)
VH: EVQLLESGGGLVQPGGSLRLSCAASGFTFSSYDMHWVRQAPGKGLEWVSSISSSSSYIYYADSVKGRFTISRDNSKNTLYLQMNSLRAEDTAVYYCARDIDDVAGDYWGQGTLVTVSS
VL: B2 VL with R24Q, R30S, D32Y, G34N, D50G, N53S, T56S, N93S, M94T, Y96F
notes: scFv
B13: Polypeptide No. 186 (scFv, V domains shown)
VH: QVQLVQSGAEVKKPGASVKVSCKASGYTFTKYYMHWVRQAPGQGLEWMGWINPNSGNTGYAQKFQGRVTMTRDTSTSTVYMELSSLRSEDTAVYYCARDIAVAGSTYYYYGMDVWGQGTTVTVSS
VL: B10 VL with R24Q, V25A, G28D, S31N, S52T, G91S, W96P, Q100G, L104V
notes: scFv
B14: Polypeptide No. 198 (scFv, V domains shown)
VH: EVQLLESGGGLVQPGGSLRLSCAASGFTFSTFWMSWVRQAPGKGLEWVATISYDGSNQYYADSVKGRFTISRDNSKNTLYLQMNSLRAEDTAVYYCARLELHEGRFDYWGQGTLVTVSS
VL: B9 VL with V29I, W32Y, A34N, S53N, Q55E, S56T
notes: scFv
B15: Polypeptide No. 196 (scFv, V domains shown)
VH: QVQLVQSGAEVKKPGASVKVSCKASGYTLTNYYMHWVRQAPGQGLEWMGWISPTDGKTKYAQKFQGRVTMTRDTSTSTVYMELSSLRSEDTAVYYCTTDLLGDWFDPWGQGTLVTVSS
VL: B10 VL with V25A, Q27R, G28S, S30R, G91S, S93N, L104V
notes: scFv
B16: Polypeptide No. 188 (scFv, V domains shown)
VH: EVQLLESGGGLVQPGGSLRLSCAASGFTFSSYGMHWVRQAPGKGLEWVSYTSSSSSTIYYADSVKGRFTISRDNSKNTLYLQMNSLRAEDTAVYYCARGNVGDNWNDDEAFLGWGQGTLVTVSS
VL: B10 VL with R24Q, V25A, G28D, S31N, G91T, S93D, W96Y
notes: scFv
B17: Polypeptide No. 184 (scFv, V domains shown)
VH: QVQLVQSGAEVKKPGASVKVSCKASGGTFGNYGINWVRQAPGQGLEWMGVINPSSGGTNLAQKFQGRVTMTRDTSTSTVYMELSSLRSEDTAVYYCARSLGWPSPYMDVWGQGTMVTVSS
VL: B10 VL with V25A, G28S, S31R, G91S
notes: scFv
B18: Polypeptide No. 179 (scFv, V domains shown)
VH: QVQLVQSGAEVKKPGASVKVSCKASGGTFSSYAISWVRQAPGQGLEWMGTINPSGGSTNYAQKFQGRVTMTRDTSTSTVYMELSSLRSEDTAVYYCAIGGYDSPYMDVWGKGTTVTVSS
VL: B10 VL with R24Q, V25A, G28D, S31N, T94P, Q100G, L104V
notes: scFv
B19: Polypeptide No. 195 (scFv, V domains shown)
VH: QVQLVQSGAEVKKPGASVKVSCKASGYTFTNSYIHWVRQAPGQGLEWMGIINPSGDSTTYAQKFQGRVTMTRDTSTSTVYMELSSLRSEDTAVYYCAKPTTGDGMDVWGQGTTVTVSS
VL: B3 VL with T28G, S31N, A50D, T53N, Q55E, S56T, I94T, L104V
notes: scFv
B20: Polypeptide No. 200 (scFv, V domains shown)
VH: QVQLVQSGAEVKKPGASVKVSCKASGYTFTDYYMHWVRQAPGQGLEWMGWMNPNSGNTGYAQKFQGRVTMTRDTSTSTVYMELSSLRSEDTAVYYCAADDTKSPYGMDVWGQGTMVTVSS
VL: DIQMTQSPSSLSASVGDRVTITCQASQDISNYLNWYQQKPGKAPKLLIYEASSLQSGVPSRFSGSGSGTDFTLTISSLQPEDFATYYCQQTYSPPPTFGQGTKLEIKR
notes: scFv

What follows are binders tested against T1, huCLL1-K244-Avi-Tev-His (assay: BLI).

binding result	Binder
binds	B1
binds	B2
binds	B3
binds	B4
binds	B5
binds	B6
binds	B7
binds	B8
binds	B9
binds	B10
binds	B11
binds	B12
binds	B13
binds	B14
no binding	B15
binds	B16
binds	B17
binds	B18
binds	B19
binds	B20

Each binder was assayed against T2, huCLL1-Q244-Avi-Tev-His (assay: BLI).

binding result	Binder
binds	B1
binds	B2
binds	B3
binds	B4
binds	B5
binds	B6
binds	B7
binds	B8
no binding	B9
binds	B10
binds	B11
binds	B12
binds	B13
no binding	B14
binds	B15
binds	B16
binds	B17
binds	B18
binds	B19
no binding	B20
